Target: receptor-binding domain (RBD) of the SARS-CoV spike (S) protein (SARS-CoV, isolate of GenBank ABF65836.1 …, UniProt Q19QX0)
Details: both partners purified

B1: CR3022 Fab (Fab, V domains shown)
VH: QMQLVQSGTEVKKPGESLKISCKGSGYGFITYWIGWVRQMPGKGLEWMGIIYPGDSETRYSPSFQGQVTISADKSINTAYLQWSSLKASDTAIYYCAGGSGISTPMDVWGQGTTVTVSS
VL: not shown
Kd: 1 ± 0.1 nM

— PMC7164391 (Science (New York, N.Y.), 2020)
